Data published in the Human Domainome abundance scans (Beltran et al. 2025).

B1: Neutrophil cytosol factor 2, residues 456 to 514; numbered along this chain, P19878 (parent)
chain: LKKGSQVEALFSYEATQPEDLEFQEGDIILVLSKVNEEWLEGECKGKVGIFPKVFVEDC

Variants of: B1
Assay: abundance fitness (aPCA) (normalised: wild type 0, dead -1); higher = more abundant; growth selection in yeast, the domain comes from the species named
Conditions: Homo sapiens

Abundance fitness of substitutions, site by site:
K53: D -0.61 | A -0.246 | R 0.195 | F -0.857 | P -0.716 | C -0.848 | E -0.353 | N -0.378 | W -0.808 | G 0.02
C59: S -0.012 | T 0.289 | I 0.153 | V 0.402 | H -0.361 | D -0.555 | G -0.64 | Y -0.204 | L -0.112 | F -0.044 | P 0.078 | N -0.242 | A 0.057 | R -0.173
I50: Y -0.208 | V -0.298 | S -0.448 | P 0.096 | Q -0.659 | R -0.125
F51: I -0.506 | S -0.328 | N -0.584 | P -0.924 | T -0.165 | R -0.716 | Y -0.359 | V -0.342 | C -0.247 | M 0.006 | H -0.18 | A -0.63 | G -0.425 | E 0.113 | W -0.739 | L -0.735
V54: C 0.378 | Y -0.03 | A 0.431 | K 0.663 | F -0.203 | H 0.425 | T 0.18 | L -0.434 | R 0.625 | Q 0.298 | P -0.459 | I -0.079 | G -0.209 | W -0.438 | E -0.124 | D 0.049 | M 0.378
D58: E 0.091 | Q -0.079 | K 0.351 | P 0.214 | C 0.313 | S 0.022 | F -0.718 | G 0.392 | V -0.138 | I -0.268 | L -0.493 | M -0.203 | Y -0.595 | T 0.133 | R 0.155
